Test results published in the supplement of paper PMC10567573.
± gives the standard deviation.

Assay: protein stability index of a GFP-peptide fusion (GPS, HEK-293T) (PSI 1-6); higher = more stable
Conditions: c terminus: a fixed tail appended
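Further: 24-mer peptide tiles fused after GFP, lentivirally expressed, FACS-sorted into six equal bins by GFP/DsRed ratio, decoded by Illumina sequencing, PSI is the read-weighted mean bin number.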

Question: With CCSSADICPKCWTLMTMAIRIIDR [PRIM1] as the sequence, how does the protein stability index (treatment: DMSO) read?
Answer: 2.25 ± 0.18

Question: And the protein stability index (treatment: MLN4924 1 uM, 8 h)?
Answer: 2.44 ± 0.55

Question: What does the source list for DYLTVKVWDLNMEARPIETYQVHD [PPP2R2C]?
Answer: protein stability index (treatment: DMSO): 2.69 ± 0.34; protein stability index (treatment: MLN4924 1 uM, 8 h): 2.86 ± 0.16

Question: For KSLSELVDDKFGTGTKKVTRILDG [PSD2], which protein stability index (treatment: DMSO) is on record?
Answer: 4.44 ± 0.18

Question: And the protein stability index (treatment: MLN4924 1 uM, 8 h)?
Answer: 4.53 ± 0.23

Question: Which protein stability index (treatment: DMSO) does the source give for PPASARRLSVPRDSACDESSCIPK [IRX6] here?
Answer: 5.33 ± 0.16

Question: What about the protein stability index (treatment: MLN4924 1 uM, 8 h) of the same sequence?
Answer: 5.31 ± 0.14

Question: With EVLREQAGGDATENFEDVGHSTDA [CYB5A] as the sequence, how does the protein stability index (treatment: DMSO) read?
Answer: 5.57 ± 0.43

Question: And the protein stability index (treatment: MLN4924 1 uM, 8 h)?
Answer: 5.67 ± 0.19

Question: With AAPAVRASSSPVTLRQKTVDWRRV [SLA] as the sequence, how does the protein stability index (treatment: DMSO) read?
Answer: 3.2 ± 0.54

Question: What about the protein stability index (treatment: MLN4924 1 uM, 8 h) of the same sequence?
Answer: 3.17 ± 0.72

Question: For ASVLLQAVLYPRFMGTISDVKTNV [CD207], which protein stability index (treatment: DMSO) is on record?
Answer: 2.76 ± 0.38

Question: And the protein stability index (treatment: MLN4924 1 uM, 8 h)?
Answer: 2.69 ± 0.41

Question: What does the source list for CCAAPGPHVALAVRYNRVGILRRI [ANKRD9]?
Answer: protein stability index (treatment: DMSO): 2.37 ± 0.26; protein stability index (treatment: MLN4924 1 uM, 8 h): 2.49 ± 0.2

Question: Which protein stability index (treatment: DMSO) does the source give for REFDVRQTPQVNINPFTPDSLLLH [WEE1] here?
Answer: 3.41 ± 0.47

Question: And the protein stability index (treatment: MLN4924 1 uM, 8 h)?
Answer: 3.52 ± 0.15

Question: Which results are given for MSWAKLARQATNLKVNFFFERIMK [FBXO39]?
Answer: protein stability index (treatment: DMSO): 2.34 ± 0.19; protein stability index (treatment: MLN4924 1 uM, 8 h): 2.22 ± 0.35

Question: For AALLGSNSESWGWDIGRGKLYHQS [SPSB2], which protein stability index (treatment: DMSO) is on record?
Answer: 2.6 ± 0.63

Question: What about the protein stability index (treatment: MLN4924 1 uM, 8 h) of the same sequence?
Answer: 3.06 ± 0.13

Question: With VIKMLVNDNKVLRYLAVLESPIPE [EFHC1] as the sequence, how does the protein stability index (treatment: DMSO) read?
Answer: 2.32 ± 0.31

Question: Which protein stability index (treatment: DMSO) does the source give for LNAYMKSLLSLPVWVLMDEDVRIF [NCF4] here?
Answer: 3.17 ± 0.86

Question: What about the protein stability index (treatment: MLN4924 1 uM, 8 h) of the same sequence?
Answer: 2.54 ± 0.46

Question: Which results are given for ETRQKKLEVAMEEEGLADEEKKLR [STK38L]?
Answer: protein stability index (treatment: DMSO): 5.51 ± 0.18; protein stability index (treatment: MLN4924 1 uM, 8 h): 5.6 ± 0.21

Question: What does the source list for TACAVIILTIICYLGLPRLEFYRY [SLC29A1]?
Answer: protein stability index (treatment: DMSO): 3.04 ± 0.18; protein stability index (treatment: MLN4924 1 uM, 8 h): 3.1 ± 0.13

Question: For RNPVSLVVTRLVILGSGEEGPQVG [ADAMTS4], which protein stability index (treatment: DMSO) is on record?
Answer: 2.83 ± 0.2

Question: With SSSRDTDWVVVKEPVIKVAAIDNG [PI4K2A] as the sequence, how does the protein stability index (treatment: DMSO) read?
Answer: 4.25 ± 0.1

Question: What about the protein stability index (treatment: MLN4924 1 uM, 8 h) of the same sequence?
Answer: 4 ± 0.11

Question: Which results are given for MKRDVQEGQARCLAHLGRHMEALE [C8orf76]?
Answer: protein stability index (treatment: DMSO): 3.66 ± 0.22; protein stability index (treatment: MLN4924 1 uM, 8 h): 3.97 ± 0.35

Question: With FLQKVAQMPQEEVELLPPAPKGKG [BRD3] as the sequence, how does the protein stability index (treatment: DMSO) read?
Answer: 4.24 ± 0.17

Question: What about the protein stability index (treatment: MLN4924 1 uM, 8 h) of the same sequence?
Answer: 4.32 ± 0.13

Question: Which results are given for LNDQNLCIPASSSFVYGAVPIGAS [GAN]?
Answer: protein stability index (treatment: DMSO): 3.07 ± 0.16; protein stability index (treatment: MLN4924 1 uM, 8 h): 3.13 ± 0.17

Question: For RPNRQLGSMVEIAKQLQAVKRKIR [TRIM39], which protein stability index (treatment: DMSO) is on record?
Answer: 2.85 ± 0.43

Question: What about the protein stability index (treatment: MLN4924 1 uM, 8 h) of the same sequence?
Answer: 3.03 ± 0.27

Question: With FARNGALSTHNWTYWQCGQYLGVG [RSAD1] as the sequence, how does the protein stability index (treatment: DMSO) read?
Answer: 2.63 ± 0.66

Question: What about the protein stability index (treatment: MLN4924 1 uM, 8 h) of the same sequence?
Answer: 2.17 ± 0.17

Question: For NMLFQQNKDGIGEICLWGRHIFMG [ACSBG2], which protein stability index (treatment: DMSO) is on record?
Answer: 2.3 ± 0.33

Question: What about the protein stability index (treatment: MLN4924 1 uM, 8 h) of the same sequence?
Answer: 2.3 ± 0.54

Question: For KKIQVNSKPSIQPKPLLLPAAPKT [ATF6], which protein stability index (treatment: DMSO) is on record?
Answer: 4.18 ± 0.17

Question: What about the protein stability index (treatment: MLN4924 1 uM, 8 h) of the same sequence?
Answer: 4.221 ± 0.027

Question: For KTIKSFFPHSGKDCLLCFPETLPE [C8orf76], which protein stability index (treatment: DMSO) is on record?
Answer: 2.92 ± 0.26

Question: What about the protein stability index (treatment: MLN4924 1 uM, 8 h) of the same sequence?
Answer: 3.03 ± 0.32

Question: What does the source list for AQSEAEKKLKKDDKKKELQELNEL [ZC3H15]?
Answer: protein stability index (treatment: DMSO): 5.56 ± 0.23; protein stability index (treatment: MLN4924 1 uM, 8 h): 5.53 ± 0.21

Question: Which results are given for SQFHSVRPQGPQLRQQQHKQNKQV [DNAJC4]?
Answer: protein stability index (treatment: DMSO): 4.85 ± 0.12; protein stability index (treatment: MLN4924 1 uM, 8 h): 4.87 ± 0.13

Question: For LTILPTEIETWVREHCPENRERVV [ZNF449], which protein stability index (treatment: DMSO) is on record?
Answer: 3.23 ± 0.2

Question: What about the protein stability index (treatment: MLN4924 1 uM, 8 h) of the same sequence?
Answer: 3.42 ± 0.29

Question: For LLSDVRFVLGKGRGAAAAGGPQRI [BTBD1], which protein stability index (treatment: DMSO) is on record?
Answer: 2.85 ± 0.63

Question: What about the protein stability index (treatment: MLN4924 1 uM, 8 h) of the same sequence?
Answer: 3.04 ± 0.27

Question: Which protein stability index (treatment: DMSO) does the source give for THRDRPSQQQPLRNQVVSSTNGEL [CSNK1G1] here?
Answer: 4.93 ± 0.33

Question: What about the protein stability index (treatment: MLN4924 1 uM, 8 h) of the same sequence?
Answer: 4.71 ± 0.36

Question: Which protein stability index (treatment: DMSO) does the source give for CLGALCENTCLLRGFSGGILAFLV [TSPAN10] here?
Answer: 2.34 ± 0.57

Question: What about the protein stability index (treatment: MLN4924 1 uM, 8 h) of the same sequence?
Answer: 2.55 ± 0.33

Question: What does the source list for IVGIVEKGNRTARIIDKPRVIEVL [SEPHS2]?
Answer: protein stability index (treatment: DMSO): 2.56 ± 0.29; protein stability index (treatment: MLN4924 1 uM, 8 h): 2.27 ± 0.49

Question: Which protein stability index (treatment: DMSO) does the source give for SWARQESLQERKQALYEYARRRFT [AUP1] here?
Answer: 3.8 ± 0.17

Question: What about the protein stability index (treatment: MLN4924 1 uM, 8 h) of the same sequence?
Answer: 3.81 ± 0.12

Question: What does the source list for RSLENYHFVDEHGKDQGINIRQKV [CLINT1]?
Answer: protein stability index (treatment: DMSO): 3.77 ± 0.23; protein stability index (treatment: MLN4924 1 uM, 8 h): 3.75 ± 0.4

Question: Which protein stability index (treatment: DMSO) does the source give for WYLKEEDHYQRVKREREKEDIALN [RHOBTB1] here?
Answer: 3.94 ± 0.18

Question: And the protein stability index (treatment: MLN4924 1 uM, 8 h)?
Answer: 3.955 ± 0.027

Question: With NCKLATRAKDFLPADIQAQFAISR [SNX8] as the sequence, how does the protein stability index (treatment: DMSO) read?
Answer: 2.45 ± 0.21

Question: And the protein stability index (treatment: MLN4924 1 uM, 8 h)?
Answer: 2.73 ± 0.52

Question: What does the source list for RSKSGSEEVLCDSCIGNKQKAVKS [TRIM29]?
Answer: protein stability index (treatment: DMSO): 4.96 ± 0.31; protein stability index (treatment: MLN4924 1 uM, 8 h): 5.19 ± 0.11

Question: Which protein stability index (treatment: DMSO) does the source give for RWTFEKACHPFLLGPPLVRKRIHD [TOR1AIP2] here?
Answer: 2.64 ± 0.18

Question: What about the protein stability index (treatment: MLN4924 1 uM, 8 h) of the same sequence?
Answer: 2.76 ± 0.33

Question: What does the source list for SGPEEPLLEEEEKQWGPLEREPVR [RTN2]?
Answer: protein stability index (treatment: DMSO): 5.51 ± 0.21; protein stability index (treatment: MLN4924 1 uM, 8 h): 5.47 ± 0.34

Question: Which protein stability index (treatment: DMSO) does the source give for NAIRVHHALATRASDYSKKSNVLK [PSD2] here?
Answer: 3.46 ± 0.31

Question: And the protein stability index (treatment: MLN4924 1 uM, 8 h)?
Answer: 3.5 ± 0.12

Question: For TFQSHEPEFDYLKSLEIEEKINKI [PPP2R2C], which protein stability index (treatment: DMSO) is on record?
Answer: 4.74 ± 0.17

Question: What about the protein stability index (treatment: MLN4924 1 uM, 8 h) of the same sequence?
Answer: 4.81 ± 0.31

Question: Which results are given for HLRTHTGERPYKCSECGESFSRSS [ZNF263]?
Answer: protein stability index (treatment: DMSO): 3.16 ± 0.19; protein stability index (treatment: MLN4924 1 uM, 8 h): 3.38 ± 0.55

Question: What does the source list for QPLEGGTPNSAGGPGAHILRRKSP [ADAMTS4]?
Answer: protein stability index (treatment: DMSO): 5.34 ± 0.43; protein stability index (treatment: MLN4924 1 uM, 8 h): 5.37 ± 0.17

Question: With LFNLSNFLDKSGSHGYDMSTFIRR [SNAP91] as the sequence, how does the protein stability index (treatment: DMSO) read?
Answer: 2.62 ± 0.62

Question: What about the protein stability index (treatment: MLN4924 1 uM, 8 h) of the same sequence?
Answer: 2.25 ± 0.35

Question: Which protein stability index (treatment: DMSO) does the source give for VPLCSCRMETPKSREITTLANNQC [EHMT1] here?
Answer: 2.62 ± 0.17

Question: What about the protein stability index (treatment: MLN4924 1 uM, 8 h) of the same sequence?
Answer: 2.81 ± 0.24
